Data: the nanobody polyreactivity screen of Harvey et al. (2022)

assay: yeast display, Sf9 membrane polyspecificity reagent, FACS + sequencing; frameworks hold sequencing errors
Summary of the method: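 After 36–48 hours of galactose induction, yeast (Saccharomyces cerevisiae BJ5465) displaying a synthetic nanobody library were stained at 4 °C for 1 hour with 10% biotinylated, detergent-solubilized Sf9 membrane reagent. Streptavidin microbeads enriched the stained cells before FACS sorting into low and high (top ~1%) gates on anti-HA and streptavidin fluorescence. Each clone's polyreactivity label reflects its gate of origin.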

Sequence	polyreactivity (PSR sort gate)
QVQLVESGGGLVQAGGSLRLSCAASGSTLQINGMGWYRQAPGKERELVAAISIGGDTNYADSVKGRFTISRDNAMNTVSLQMNSLKPEDTAVYYCAASGAYDEAYGEAFYYWGQGTQVIVSS	low polyreactivity
QVLLVESGGGLGQAGGSLRLSCAASGAIFVGYAMGWYRQAPGKEREMVAAISKSGGSTYYADSVKGRFTISRDNAKNTVYLQMKSLKPDDTAVYYCAAYPVRLVYSQHRYLYDYWGQGTQVTVSS	high polyreactivity
QVQLVESGGGLVQAGGSLRLSCAASGFTFIRNAMGWYRQAPGKERELVAAISRSGGSTYYADSVKGRFTISRDNAKKTVYLQMNSQKPEDTAVYYCAVTLYLKWQGGAYDYWGQGTQVTVSS	low polyreactivity
QVQLVESGGGLVQAGGSLRLSCAASGRTFVYNAMGWYRQAPGKERELVAAIDGGGDRTYYADSVKGRFTISRDNAKNTVYLQMNSLKPEDTAVYYCNARWQEPLKYDYWGQGTQVTVSS	low polyreactivity
QVQLVESGGGLVQAGGSLRLSCAASGRTFEYYAMGWYRQAPGKERELVAAIDSGGSTNYADSVKGRFTISRDNAKNTVYLQMNSLKPEDTAVYYCATEVDQNYNYDYWGQCTQVTVSS	low polyreactivity
QVQLVESGGGLVQAGGSLRLSCAASGYTFHYNTMGGYRQAPGKERELVATISDGGSTNYADSVKGRFTISRDNAKNTVYLQMNSLKPEDTAVYYCAALYQQFQSALVPYFDVIEEDYWGQGTQVTVSS	low polyreactivity
QVQLVESSGGLVQAGGSLRLSCAHSGIIFYCYAMGCYRHSPGNLRELVAAISNNGGSTYPDSVKGRFTISRDNAKNTVYLQMNSLKPEDTAVYYGDAHPTGGVGFDAYYWGQGTQVTVSS	low polyreactivity
QVQLVESGGGLVQAGGSLRLSCAASGFTFTYYAMGWSRQAPGKERELVATISSGGSTYYADSVKGRFTISRDNAKYTVYLQMISLKPEDTAVYYCAVTTYSGLYGFDYWGQGTQVTVSS	low polyreactivity
QVQLVESGGGLVQAGGSLRLSCAASGLIFSYYVMGWYRQAPGKERELVAAISRIGGSTYYADSVKGRFTISRDNAKNTVYLQMNSLKPEDTAVYYCAAYDLSPGSLTGGYYWGQGTQVTVSS	high polyreactivity
QVQLVDSGGGLVQAGGSLRLICAASGSIFIDKAMGWYRQAPGKERELVAAISWSGGRTYYADSVKGRFTISRDNAKNTVYLQMNSLKPEDTAVYYCAVDFRHPYDYDYWGQGTQVTVSS	high polyreactivity
QVQLVESGGGLVQAGGSLRLSCAASGRIFHRYAMGWYRQAPGKERELVASISRGDSTNYADSVKGRFTISRDNAKNTVYLQMNSLKPEDTAVYYCAARSFTRYRYYYWGQGTQVTVSS	high polyreactivity
QVQLVESGGGLVQAGGSLRLSCAASGSTFGYYAMGWYRQAPGKERELVADISKSSGSTYYADSVKGRFTISRDNAKNTVYLQMNSLKPEDTAVYYCNRRYYYRTYDYWGQGTQVTVSS	high polyreactivity
QVQLVESGGGLVQAGGSLRLSCAASVSTFPQYAMGWYRQAPGKERELVAAISWSGGRTYYADSVKGRFTISRDNAKNTVYLQMNSLKPEDTAVFYCAATYPGQYGYNYWGQGTQVTVSS	high polyreactivity
QVHLVESGGGLVQAGRSLRISCAASGRTFYGYAMGWYRQAPGKERELVAAITNGGRTYYADSVKGRFTISRDNAKNTVYLQMNSLKPEDTAVYYCAAGTGRGRSTLGSYYWGQCTQVTVSS	high polyreactivity
QVQLVESGGGLVQAGGSLRLSCAASGRIFPYYAMGRYRQAPGKERELVARITRNGGTTYYADSVKGRFTISRDNAKNTVYLQMNSLKPEDTAVYYCAATYSVPYYRSWPEYDYWGQGTQVTVSS	high polyreactivity
QVQLVESGGGLVQAGGSLRLSCAASGFIFPVNAMGWYRQAAGKERELVAAITSSGGDTYYADSVKGRFTISRDNAKNTVYLQMNSLKPEDTAVYYCAAEYTQEQEDYDYWGQGTQLTVSS	low polyreactivity
QVQLVESGGGLVQAGGSLRLSCAASGSIFAYYVMGWYRKAPGKERELVAAITSVGSTNYADSVKGRFTISRDNAKNTVYLQMNCLKPEDTAVYSCAAVQYQASYYYWGQGTQVTLSS	low polyreactivity
EEELVESGGGLVQAGGSLSLICAASGLTFYIYAMGWYRPAPGKERELVAAITTSGDSTYYADSVKGRFTISRDNAKNTVYLLLNSLKPEDTAVYYGAAAVWHYGRPGYLDSGYDYWGQGTQVSVSS	low polyreactivity
QVQLVESGGGLVQAGGSLRLSCAASGYTFPSYALGWYRQAPGKERELVAVITIGGTYYADSVKGRFTISRDNAKNTVYLQMNSLKPEDTAVYYCAADWAWDYYRGFDYLGQGTQVTVSS	low polyreactivity
QVQLVESGGGLVQAGGSLRLSCAASGLTFYYYVMGWYRQAPGKEREFVAAISRSGGSTYYADSVKGRFTISRDNAKNTVYLQMNSLKPEDTAVYYCASYTHDFGYKYWGQGTQVTVSS	high polyreactivity
QVQLVESGGGLVQAGGSLRLSCAASGSIFRPYAMGWYRQAPGKERELVAAISYRGGSTYYADSVKGRFTISRDNAKNTVYLQMNSLKPEDTAVYYCAADSREEGDYWGQGTQVTVSS	low polyreactivity

Sequence	polyreactivity (PSR sort gate)
QVQLVESGGGLVQAGGSLRISCAASGRTLTSNAMGWYRQAPGKERELVASITGSSSNTYYADSVKGRFTISRDNAKNTVYLQMNSLKPEDTAVSYCAAEVGFPWWRLDEYWGQGTQVTVSS	low polyreactivity
QVQLVESGGGLVQAGGSLRLSCAASGSIFFYYAMGWYRQAPGKERELVAAITLSDGRTYYADSVKGRFTISRDNAKNTVYLQMNSLKPEDTAVYYCNADTGWYPTGARWHHYDYWGQGTQVTVSS	high polyreactivity
QDQLVESGGGLVQAGGSLRLSCAASGRIFVYYVMGWYRQAPGKERELVAAITYSGGSTYYADSVKVRFTISRDNAKNTVYLQMNSLKPEDTAVYACNKVDAFGIVRLYYWGQGTQVTVSS	low polyreactivity
QVQLVESGGGVVQAGGSLRLSCAASGRILRGYALGWYRPAPGTERELVAAITWRGGSTYYADSVKGRFTISRDNAKNTVYLQMNSLKPEDTAVYYCAADRAYRYEMDYWGQGTQVTVSS	high polyreactivity
QVQLVESGGGLVQAGGSLRLSCAASGLTFGGNAMGWYSQAPGKERELVAALSWSDDTTDYADSVKGRFTISRDNAKYTVYLQMNSLKPEDTAVYYCAARLPFEHVDYWGQGTQVTVSS	low polyreactivity
QVQLQESGGGPVLAGGSLRLSCAASGTIFVPLDMGWYRQAPGKEREFVATIGSGSSTYYADSVKGSFTISRDNVKNTVYLQMNSLKPEDTAVYYCAVSAAEQSRHYYWDQGTQVTVSS	low polyreactivity
QVQLVESGGGLDQAGGSLRLSCAASGSIFFYYAMVWYRQAPGKERELVADITSGGTTYYADSVKGRFTISRDNAKNTVYLQLNSLKPEDTAVYYCNACLYPGQRPDYTNYSSDYLGQGTQVTVSS	low polyreactivity
QVQLVESGGGLVQAGGSLRLRCAASGFTFRFYAMGWYRQAPGKERELVAAISSTGIRTYYADSVKGRFTISRDNAKNTVYLQMNSLKPEDTAFYYCAILHRDSILDYWGQGTQVTVAS	high polyreactivity
QVQLVESGGGLVQAGGSLRLSCAASGSTFPPYVIGWYRPAPGKERELVAAITWSSGSTYYADSVKGRFTISRDNAKNTVYLQMNSLKPEDTAVYYCAARAYRWGQGTQVTVSS	low polyreactivity
QVQLVESGGGLVQAGGSLRLSCAASGFIFGSYAMGWYRQAPGKERELVAAITSSGITYYADSVKGRFTISRDNAKNTVYLQMNSLKPEDTAVYYCAAEGSTYQGAPGVYYWGQGTQVTVSS	high polyreactivity
QVQLVESGGGLVQAGGSLRLSCAASGRIFWHYAMGWYRQAPGKERELVAAIDYSGGRTRYADSVKGRFTISRDNAKNTVYLQMNSLKPEDTAVYYCAARRSSWGSFTGYYYWGQGTQVTVSS	high polyreactivity
QVQLEESGGGLVQAGGSLRLSCAASGSTFWYYAMGWYRPAPGKERELVAALSRSTGSTYYADSVKGRFTISRDNAKNTVYLQMNSLKPEDTAVYYCAADSYDWWQYTTSVHFDYYWGQGTQVTVSS	low polyreactivity
QVQLVESGGGLVQAGGSLRLSCAASGRTFVLNVMGWYRQAPGKERELVADITSGDNTYYADSVKGRFTISRDNAKNTVYLQRNSLKPEDTAVYYCAADGWFYFGYDYWGQGTQVTVSS	low polyreactivity
QVQLVESGGGLVQAGGSLRLSCAASGFILAQNAKGWSRQAPGKEWELVAAISRRGGRTSYADSVKGRFTISRDNAKNTVYLQMNSLKPEDTAVYYCAALPPRASSDAGGWYVAEDYWGQGTQVTVSS	high polyreactivity
QVQLVESGGGLVQAGGSLRLSCAASGSIFAINAMGWYRQAPGKERELVAAIRSGGRTYSADSEKGRFTISRDNAKITVYLQMNSLKPEDTAVYYCTDGGKWIGSDYWGQGTQVTVSS	high polyreactivity
QVQLVESGGGLVQAGGSLRLSCAASGITIYDNDMGWYRQAPWKERELVAGITRTTVGTYYADSVKGRFTISRDNAKNTVYLQMNSLKPEDTAVYYCAATSLAGYYQFDYWGQGTQVTVSS	low polyreactivity
QVQLVASGGGLVQAGGSLRLSCAASGSTFTQNAMGWDRPAPGQEREVVAAISWSGARTYYADSVKGRFTISRHNAKNTVYLQMNSRKPEDPAVYDCNNYARKRGTTYDYWGHGTQVTVSS	high polyreactivity
QVQLVESGGGLVQAGGSLRLSWAASGRTFKSNAMGWYRPAPGKERELVAAISWGGGSTYYADSVKGRFTISRDNAKNTVYLQMNSLKPEDTAVYYCARRDIYGSYGFYTGGVDYWGQGTQVTVSS	low polyreactivity
QVQLVESGGGLVQAGGSLRLSCAASGNTFLYYAMGWYRQAPGKEMELVASINLSDGSTYYADSVKGRFTISRDNAKNTVYLQMNSLKPEDTAVYYCAAVYGGYTIYDYWGQGTQVTVSS	low polyreactivity
QVQLVESGGGLVQAGGSLRLSCAASGSIFSSNAMGWYRPAPGKERELVAAITSGGSTTYADSVKGRFTISRDNAKNTVYLQMNSLKPEDTAVYYCAADPVYRYYHGWTYLDYDYWGQGTQVTVSS	low polyreactivity
